The assay concerns the target T1, SARS-CoV-2 WHU01 Spike RBD, monomeric (SARS-CoV-2, UniProt P0DTC2).
T1 construct: not shown: Fc (human IgG1), C-terminal, cleaved
The experiment in a line: SPR. The settings on record: both partners purified.

B1: Dog ACE2-huFc (soluble dog ACE2 ectodomain, human IgG1 Fc fusion) (Fc fusion)
chain: QSTEDLVKTFLEKFNYEAEELSYQSSLASWNYNINITDENVQKMNNAGAKWSAFYEEQSKLAKTYPLEEIQDSTVKRQLRALQHSGSSVLSADKNQRLNTILNSMSTIYSTGKACNPSNPQECLLLEPGLDDIMENSKDYNERLWAWEGWRSEVGKQLRPLYEEYVALKNEMARANNYEDYGDYWRGDYEEEWENGYNYSRNQLIDDVEHTFTQIMPLYQHLHAYVRTKLMDTYPSYISPTGCLPAHLLGDMWGRFWTNLYPLTVPFGQKPNIDVTNAMVNQSWDARKIFKEAEKFFVSVGLPNMTQEFWENSMLTEPSDSRKVVCHPTAWDLGKGDFRIKMCTKVTMDDFLTAHHEMGHIQYDMAYAAQPFLLRNGANEGFHEAVGEIMSLSAATPNHLKNIGLLPPSFFEDSETEINFLLKQALTIVGTLPFTYMLEKWRWMVFKGEIPKDQWMKTWWEMKRNIVGVVEPVPHDETYCDPASLFHVANDYSFIRYYTRTIYQFQFQEALCQIAKHEGPLHKCDISNSSEAGQKLLEMLKLGKSKPWTYALEIVVGAKNMDVRPLLNYFEPLFTWLKEQNRNSFVGWNTDWSPYADQSIKVRISLKSALGEKAYEWNNNEMYLFRSSIAYAMRQYFSEVKNQTIPFVEDNVWVSDLKPRISFNFFVTSPGNVSDIIPRTEVEEAIRMYRSRINDVFRLDDNSLEFLGIQPTLGPPYEPPVTI
notes: source: 293F cells, transfected, purified from supernatant (Protein A Sepharose)
In turn, B1 yielded a Kd of 275 nM, a koff of 0.0176 s⁻¹ and a kon of 60000 M⁻¹ s⁻¹.

Values taken from paper PMC10715038 (Microbiology Spectrum, 2023).
